Publication PMC12629983, “Nanobody-based recombinant antivenom for cobra, mamba and rinkhals bites” (Nature, 2025)

Key:
Settings in all cases: both partners purified
[1] = molecular target: protein of Hemachatus haemachatus PRINTED:77012629983_21 (Hemachatus haemachatus, fraction Hh9 …); test: BLI; […] (0.5 µg/ml) […], pH 7.2; 600 s association, 600 s dissociation; global 1:1 fit
[2] = molecular target: T1, Cardiotoxin (P01468) from N. pallida (Naja pallida, UniProt P01468); test: crystal structure
T1 construct: also called cardiotoxin (UniProt: P01468); source: bought: Latoxan (lyophilized)

[3] = molecular target: CTx-10 (Naja pallida (Kenya, L1321)); Latoxan …, UniProt P01468, biotin (EZ-Link NHS-PEG4-Biotin, amine coupling)); test: BLI; […], pH 7.2; 600 s association, 600 s dissociation; global 1:1 fit
[4] = molecular target: T2, KUN-2 (Dendroaspis polylepis (L1309), fraction …, biotin (EZ-Link NHS-PEG4-Biotin, amine coupling)); test: BLI; […] (0.5 µg/ml) […], pH 7.2; 600 s association, 600 s dissociation; global 1:1 fit
T2 construct: source: venom fraction isolated from whole venom (Latoxan) by RP-HPLC; biotinylated
T2 chain: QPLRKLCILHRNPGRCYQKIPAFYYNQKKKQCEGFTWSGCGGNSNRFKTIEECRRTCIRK

[5] = molecular target: T3, KUN-1 (Dendroaspis jamesoni (L1308, Cameroon), …, biotin (EZ-Link NHS-PEG4-Biotin, amine coupling)); test: as above
T3 construct: source: venom fraction isolated from whole venom (Latoxan) by RP-HPLC; biotinylated
T3 chain: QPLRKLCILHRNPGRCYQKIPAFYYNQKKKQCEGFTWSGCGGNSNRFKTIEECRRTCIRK

[6] = molecular target: KUN-2 (Dendroaspis polylepis (L1309), UniProt P00979, biotin (EZ-Link NHS-PEG4-Biotin, amine coupling)); test: BLI; […], pH 7.2; 600 s association, 600 s dissociation; global 1:1 fit
[7] = molecular target: T4, PLA2-3 (Naja nubiae (Egypt, L1342), fraction …, UniProt P14556); test: cryo-EM structure
T4 construct: also called basic phospholipase A2 nigexine (P14556)

[8] = molecular target: T5, sNTx-5 (Hemachatus haemachatus (L1311), …, biotin (EZ-Link NHS-PEG4-Biotin, amine coupling)); test: BLI; […] (0.5 µg/ml) […], pH 7.2; 600 s association, 600 s dissociation; global 1:1 fit
T5 chain: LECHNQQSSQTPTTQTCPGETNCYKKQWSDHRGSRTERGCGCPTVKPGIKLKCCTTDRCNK

[9] = molecular target: T6, sNTx-1 (Dendroaspis jamesoni (L1308, Cameroon), …); test: as above
T6 chain: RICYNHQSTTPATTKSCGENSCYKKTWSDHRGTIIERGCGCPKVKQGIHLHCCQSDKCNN

[10] = molecular target: T7, sNTx-7 (Naja annulifera (L1314), fraction Nan3, biotin (EZ-Link NHS-PEG4-Biotin, amine coupling)); test: as above
T7 chain: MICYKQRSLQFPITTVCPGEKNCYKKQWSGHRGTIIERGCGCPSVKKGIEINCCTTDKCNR

[11] = molecular target: T8, sNTx-6 (Naja melanoleuca (L1318), fraction Nm3, biotin (EZ-Link NHS-PEG4-Biotin, amine coupling)); test: as above
T8 chain: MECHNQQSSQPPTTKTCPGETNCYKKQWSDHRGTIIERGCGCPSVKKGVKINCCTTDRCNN

[12] = molecular target: T9, α-short-chain neurotoxin (P01426) from N. pallida (Naja pallida, UniProt P01426); test: crystal structure
T9 construct: also called short neurotoxin 1 (P01426); source: bought: Latoxan (lyophilized)

[13] = molecular target: T10, Og XI-2 (Dendroaspis viridis, UniProt P01405); test: BLI; […] (0.5 µg/ml) […], pH 7.2; 600 s association, 600 s dissociation; global 1:1 fit
T10 construct: source: venom fraction isolated from whole venom (Latoxan) by RP-HPLC; biotinylated

[14] = molecular target: T11, Og XI-1 (Dendroaspis jamesoni venom (L1308); …); test: as above
T11 construct: source: venom fraction isolated from whole venom (Latoxan) by RP-HPLC; biotinylated
T11 chain: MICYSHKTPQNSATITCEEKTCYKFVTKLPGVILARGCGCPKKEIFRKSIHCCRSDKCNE

[15] = molecular target: T12, lNTx-3 (Dendroaspis polylepis (L1309), fraction …, biotin (EZ-Link NHS-PEG4-Biotin, amine coupling)); test: as above
T12 chain: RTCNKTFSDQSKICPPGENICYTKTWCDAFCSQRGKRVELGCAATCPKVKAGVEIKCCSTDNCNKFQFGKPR

[16] = molecular target: T13, lNTx-7 (Naja kaouthia (Latoxan L8114), biotin (EZ-Link NHS-PEG4-Biotin, amine coupling)); test: as above
T13 chain: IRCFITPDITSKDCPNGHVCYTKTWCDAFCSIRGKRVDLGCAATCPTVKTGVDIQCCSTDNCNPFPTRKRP

T1 sequence (P01468 whole entry, looked up, one chain of several): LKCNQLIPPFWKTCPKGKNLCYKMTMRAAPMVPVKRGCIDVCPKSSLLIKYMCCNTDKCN
Chain of CTx-10 (Naja pallida (Kenya, L1321)); Latoxan …, UniProt P01468, biotin (EZ-Link NHS-PEG4-Biotin, amine coupling)) (P01468 whole entry, looked up): as the sequence (P01468 whole entry, looked up, one chain of several) above
T9 sequence (P01426 whole entry, one chain of several): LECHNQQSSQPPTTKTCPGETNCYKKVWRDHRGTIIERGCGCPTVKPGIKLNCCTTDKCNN
T4 sequence (P14556 whole entry): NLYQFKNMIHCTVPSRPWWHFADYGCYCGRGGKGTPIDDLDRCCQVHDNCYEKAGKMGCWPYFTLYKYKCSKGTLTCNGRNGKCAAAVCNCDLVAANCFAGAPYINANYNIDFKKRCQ

B1:  (VHH)
VHH: QVQLQESGGGLVQAGGSLRLSCAASGRTFSSYAMAWFRQAPGKEREFVASISWNGDSTYYADSVKGRFTISGDNAKNTWYLQMKSLKPEDTAVYYCNTEDEGSGTYYEWGQGTQVTVSS
notes: also called VHH1; source: E. coli BL21 (DE3), purified (Ni resin)
- binding result [1]: no binding (tested: 480 nM)

B2:  (VHH)
VHH: QVQLQESGGGLVQAGGSLRLSCAASGRTFSSYAMAWFRQAPGKEREFVASISWNGDSTYYADSVKGRFTISGDNAKNTWYLQMKSLKPEDTAVYYCNTEDEGSGTYYEWGQGTQVTVSS
notes: also called anti-CTx VHH; source: E. coli BL21 (DE3), purified (Ni-NTA)
- binding result [2]: binds
- binding result [3]: binds

B3:  (VHH)
VHH: QVQLQESGGGLVQAGGSLRLSCAAPGFTFDNYAIGWFRQAPGKEREAVSMIDVNDGDTYYADSVKGRFATSIDNARITAYLQMNSLKPEDTAVYYCAAGEQGGIETEDDYGMDYYGKGTQVTVSS
notes: also called VHH4; source: E. coli BL21 (DE3), purified (Ni resin)
- binding result [1]: no binding (tested: 480 nM)

B4: VHH17 a-KUN (VHH)
VHH: QVQLQESGGGLVQPGGSLRLSCITSGSNFDDLSVGWFRQAPGKEREGVSCFSSSDGSTYYVDSVKGRFTMSRDNAKNTVYLQMNNLKPEDTAVYYCTADGFPYPSETMCSIPGGPDSVAWGQGTQVTVSS
notes: source: E. coli BL21 (DE3), purified (Ni resin)
- Kd [4]: < 0.001 nM
- koff [4]: < 1e-07 s⁻¹
- kon [4]: 86900 M⁻¹ s⁻¹
- Kd [5]: 0.0405 nM
- koff [5]: 8.43e-07 s⁻¹
- kon [5]: 20800 M⁻¹ s⁻¹

B5: VHH17 a-KUN (VHH)
VHH: QVQLQESGGGLVQPGGSLRLSCITSGSNFDDLSVGWFRQAPGKEREGVSCFSSSDGSTYYVDSVKGRFTMSRDNAKNTVYLQMNNLKPEDTAVYYCTADGFPYPSETMCSIPGGPDSVAWGQGTQVTVSS
notes: source: E. coli BL21 (DE3), purified (Ni-NTA)
- binding result [6]: binds

B6: VHH20 a-PLA2 (VHH)
VHH: QVQLQESGGGLAQAGGSLRLSCAASGLAFSNYSMGWARQAPGKEREFVAAISWSHQPTYYADSVKGRFTISRDNAKNTLYLQMNSLKPEDTAVYYCAADSRPNSYRLGGPGNYWGQGTQVTVSS
notes: also called anti-PLA2 VHH
- binding result [7]: binds

B7: VHH5 a-sNTx (VHH)
VHH: QVQLQESGGGLVRPGGSLRLSCAVSGVSESIFANYVVGWFRQQDSGTGRDLVAQSSSDDEYNHVSGSVKGRFTISRDNAKNTVSLQMDNLKPEDTAIYICAAAIGPGDNYIYWGQGTQVTVSS
notes: as for B4
- Kd [8]: 16.9 nM
- koff [8]: 0.000631 s⁻¹
- kon [8]: 37400 M⁻¹ s⁻¹
- Kd [9]: 1.9 nM
- koff [9]: 4.72e-05 s⁻¹
- kon [9]: 24900 M⁻¹ s⁻¹
- Kd [10]: 0.388 nM
- koff [10]: 1.44e-05 s⁻¹
- kon [10]: 37100 M⁻¹ s⁻¹
- Kd [11]: 5.46 nM
- koff [11]: 0.000163 s⁻¹
- kon [11]: 29800 M⁻¹ s⁻¹

B8: VHH5 a-sNTx (VHH)
VHH: QVQLQESGGGLVRPGGSLRLSCAVSGVSESIFANYVVGWFRQQDSGTGRDLVAQSSSDDEYNHVSGSVKGRFTISRDNAKNTVSLQMDNLKPEDTAIYICAAAIGPGDNYIYWGQGTQVTVSS
notes: also called anti-sNTx VHH; source: E. coli BL21 (DE3), purified (Ni-NTA)
- binding result [12]: binds

B9: VHH15 a-Og XI (VHH)
VHH: QVQLQESGGGAVPAGGSLTLSCAASGRTLSDYTMGWFRQAPGKEREIVGAISWNDGYTYYDDSVKGRFTISRDNAKNTMYLQMNSLKPEDTAVYYCAAQAPEMVRSGNFGSWGPGTQVTVSS
notes: as for B4
- Kd [13]: 2.16 nM
- koff [13]: 0.000122 s⁻¹
- kon [13]: 56700 M⁻¹ s⁻¹
- Kd [14]: 2.19 nM
- koff [14]: 0.000161 s⁻¹
- kon [14]: 73400 M⁻¹ s⁻¹

B10: VHH9 a-lNTx (VHH)
VHH: QVQLQESGGGLVQPGGSLRLSCTASGSIFSTVNTMGWYRQAPGKQRELVAAITGGGSTNYADSVKGRFTISRDNVENTVHLRMNALKPEDTAVYYCNFQEYCSAYGCYELPHDYWGQGTQVTVSS
notes: as for B4
- Kd [15]: 1.18 nM
- koff [15]: 0.000203 s⁻¹
- kon [15]: 173000 M⁻¹ s⁻¹
- Kd [16]: 0.753 nM
- koff [16]: 2.71e-05 s⁻¹
- kon [16]: 36000 M⁻¹ s⁻¹
